Source: patent US20220251562, “Anti-CD3 Aptamers for Use in Cell Targeting and Labeling” (Ixaka France, published 2022)

Assays:
[1] = target: T1, CD3 epsilon/gamma heterodimer (Homo sapiens, UniProt P07766;P09693 P07766:23-126,P09693:23-116); test: SPR; steady state; kinetic fits 5 nM (Table 3), 5.2 nM (Table 6), 119 pM (Table 8), 156 nM steady state (Table 9); SELEX buffer Mg Ca; settings: tags: C-terminal human IgG1 Fc fusion, AcroBiosystems; chain copies: heterodimer 1:1 (inferred); label: 5'-biotin-TEG
Procedure: (§1) Binding affinity measurements were performed using a BIAcore T200 instrument (GE Healthcare). To analyze interactions between aptamers and CD3 proteins, 1000 Resonance Units of biotinylated aptamers were immobilized on Series S Sensor chips SA (GE Healthcare) according to manufacturer's instructions (GE Healthcare). SELEX buffer was used as the running buffer. The interactions were measured in the “Single Kinetics Cycle” mode at a flow rate of 30 μl/min and by injecting different concentrations of human CD3 ε/γ, CD3 ε/δ, IgG1 Fc and mouse CD3 ε/δ (Sino Biological). The highest protein concentration used was 100 nM. Other concentrations were obtained by 3-fold dilution. All kinetic data of the interaction were evaluated using the BIAcore T200 evaluation software. Table 3 below provides a summary of KD values obtained from surface plasmon resonance measurements.

IgG1 Fc (counter target) [2] = target: T2, IgG1 Fc (counter target) (Homo sapiens, UniProt P01857-1 P01857-1:100-330); test: SPR; NA, no interaction; Table 3 prints 56.3 mM; settings: tags: AcroBiosystems; chain copies: 2; label: 5'-biotin-TEG
Procedure: as §1

[3] = target: T3, CD3 epsilon/delta heterodimer (Homo sapiens, UniProt P07766;P04234 P07766:23-126,P04234:22-105); test: SPR; steady state; kinetic 3.7 nM (Table 3), 9.9 nM (Table 6), 217 pM (Table 8); settings: tags: C-terminal human IgG1 Fc fusion, AcroBiosystems; chain copies: heterodimer 1:1 (inferred); label: 5'-biotin-TEG
Procedure: as §1

[4] = target: T1, CD3 epsilon/gamma heterodimer; test: SPR; kinetic, DPBS; settings: tags: C-terminal human IgG1 Fc fusion, AcroBiosystems; chain copies: heterodimer 1:1 (inferred); label: 5'-biotin-TEG
Procedure: as §1
(§2) Binding of anti-CD3 RNA aptamers to each of purified recombinant human CD3 ε/γ and CD3 ε/δ proteins was measured using surface plasmon resonance. Binding studies were performed generally as described in Example 5 except that SELEX buffer was replaced by DPBS. The highest protein concentration used was 300 nM. Other concentrations were obtained by 3-fold dilution. Binding to hIgG1 Fc was used as control. Binding to murine CD3 do (mCD3 c/S) was also measured.

IgG1 Fc (counter target) [5] = target: T2, IgG1 Fc (counter target); test: SPR; NA, DPBS; settings: tags: AcroBiosystems; chain copies: 2; label: 5'-biotin-TEG
Procedure: as §1, §2

[6] = target: T3, CD3 epsilon/delta heterodimer; test: SPR; NA, DPBS; settings: tags: C-terminal human IgG1 Fc fusion, AcroBiosystems; chain copies: heterodimer 1:1 (inferred); label: 5'-biotin-TEG
Procedure: as §1, §2

IgG1 Fc (counter target) [7] = target: T2, IgG1 Fc (counter target); test: SPR; no interaction observed; settings: tags: AcroBiosystems; chain copies: 2; label: 5'-biotin-TEG
Procedure: as §1

[8] = target: T1, CD3 epsilon/gamma heterodimer; test: SPR; steady state; kinetic 65.2 nM (Table 6); settings: tags: C-terminal human IgG1 Fc fusion, AcroBiosystems; chain copies: heterodimer 1:1 (inferred); label: 5'-biotin-TEG
Procedure: as §1

[9] = target: T3, CD3 epsilon/delta heterodimer; test: SPR; steady state; kinetic 3.2 uM (Table 6); settings: tags: C-terminal human IgG1 Fc fusion, AcroBiosystems; chain copies: heterodimer 1:1 (inferred); label: 5'-biotin-TEG
Procedure: as §1

IgG1 Fc (counter target) [10] = target: T2, IgG1 Fc (counter target); test: SPR; no interaction observed; printed CELTIC_CD3_22; settings: tags: AcroBiosystems; chain copies: 2; label: 5'-biotin-TEG
Procedure: as §1

IgG1 Fc (counter target) [11] = target: T2, IgG1 Fc (counter target); test: SPR; no interaction observed; settings: tags: AcroBiosystems; chain copies: 2; label: 5'-biotin-TEG; remark: listed apart in the source
Procedure: Binding affinity measurements with the most interesting anti-CD3 aptamers derived from the core sequence were performed using a BIAcore T200 instrument (GE Healthcare) as already described in Example 4. To analyze interactions between aptamers and CD3 proteins, biotinylated aptamers were immobilized at a lower density than in Example 4 (100-500 RU) on Series S Sensor chips SA (GE Healthcare) according to manufacturer's instructions (GE Healthcare). Mouse and Cynomolgus CD3 ε/δ were purchased from AcroBiosystems. For human proteins, the highest concentration used was 100 nM and 1 μM for mouse and cynomolgus antigens. Other concentrations were obtained by 3-fold dilutions.
Table 8 below provides a summary of KD values obtained from surface plasmon resonance measurements. […] Variants of the core sequence identified in cell binding assays (CELTIC_core_12, CELTIC_core_24, CELTIC_core_29, CELTIC_core_40 and CELTIC_core_42) were all confirmed to have better affinities than the unmodified aptamer with human CD3 ε/γ. As already observed in Example 4, the affinities were in general slightly lower with CD3 ε/δ which is a consequence of the SELEX strategy that included more rounds on the CD3 ε/γ isoform. None of these sequences did bind to the Fc region of human IgG1.

T1 sequence (P07766 23-126, chain 1 of 2): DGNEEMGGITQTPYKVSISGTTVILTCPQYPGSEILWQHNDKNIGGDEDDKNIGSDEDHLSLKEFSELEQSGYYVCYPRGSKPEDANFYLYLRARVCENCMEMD
T1 sequence (P09693 23-116, chain 2 of 2): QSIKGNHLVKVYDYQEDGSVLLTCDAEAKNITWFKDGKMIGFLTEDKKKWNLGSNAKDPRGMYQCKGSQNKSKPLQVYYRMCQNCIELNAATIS
T3 sequence (P07766 23-126, stated change not applied, chain 1 of 2): as the sequence (P07766 23-126, chain 1 of 2) above
T3 sequence (P04234 22-105, stated change not applied, chain 2 of 2): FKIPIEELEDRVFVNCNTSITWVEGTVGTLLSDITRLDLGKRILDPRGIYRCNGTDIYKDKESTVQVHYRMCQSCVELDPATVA

B1: CELTIC_1s (ssDNA)
DNA: TTTCCGGGTGGGGGTTTGGCACCGGGCCTGGCGCAGGGATTCG
Kd [1]: 53 nM
binding result (IgG1 Fc (counter target) [2]): no binding
Kd [3]: 125 nM

B2: ARACD3-3130001 (ssRNA)
RNA: GAUGAUAUCUUUAAUAUCAAUUGCAGCGAUUCUUGUUUGAGAAUAAAC
modifications: 2'-F pyrimidines
Kd [4]: 332 nM
binding result (IgG1 Fc (counter target) [5]): no binding
binding result [6]: no binding

B3: CELTIC_2s (ssDNA)
DNA: GAGGGGTTTGGCATCGGGCCTGGCGCCATTCAAGCTATGC
binding result (IgG1 Fc (counter target) [7]): no binding
Kd [8]: 627 nM
Kd [9]: 260 nM

B4: CELTIC_22s (ssDNA)
DNA: CGACCACAGGGGTTTGGCTTCGGGACTGGCGGTGGGCACT
binding result (IgG1 Fc (counter target) [10]): no binding

B5: CELTIC_core_40t (ssDNA)
DNA: GGGTTTGGCATCGGGTCTGGC
modifications: 5'-HEG, 3'-3' dT
binding result (IgG1 Fc (counter target) [11]): no binding
